Measured values reported in article PMC11863148.

Target: MERS-CoV nsp13 helicase (WT) (MERS-CoV, UniProt K9N7C7 5311-5908)
Experiment: EMSA

Sequence of MERS-CoV nsp13 helicase (WT) (K9N7C7 5311-5908): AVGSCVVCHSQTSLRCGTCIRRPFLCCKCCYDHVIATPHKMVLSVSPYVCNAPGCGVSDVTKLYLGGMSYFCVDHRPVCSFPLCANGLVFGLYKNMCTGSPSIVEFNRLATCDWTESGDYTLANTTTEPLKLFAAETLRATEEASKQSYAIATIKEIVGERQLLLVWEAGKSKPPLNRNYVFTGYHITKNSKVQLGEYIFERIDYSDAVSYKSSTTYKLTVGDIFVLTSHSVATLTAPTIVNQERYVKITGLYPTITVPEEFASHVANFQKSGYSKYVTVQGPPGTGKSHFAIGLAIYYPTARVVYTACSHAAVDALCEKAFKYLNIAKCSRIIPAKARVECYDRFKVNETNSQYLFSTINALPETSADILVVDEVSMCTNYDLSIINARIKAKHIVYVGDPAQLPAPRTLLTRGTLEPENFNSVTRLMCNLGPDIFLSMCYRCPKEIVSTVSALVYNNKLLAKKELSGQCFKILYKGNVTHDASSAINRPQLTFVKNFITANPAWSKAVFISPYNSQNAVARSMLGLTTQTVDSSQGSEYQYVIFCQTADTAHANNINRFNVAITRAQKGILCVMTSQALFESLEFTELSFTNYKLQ

B1: EMSA partial duplex, 18 bp with 5' (dT)21 overhang (dsDNA)
DNA 1: TTTTTTTTTTTTTTTTTTTTTCTGATGTTAGCAGCTTCG
DNA 2: CGAAGCTGCTAACATCAG
  binding result: binds
